According to paper PMC4509971:

Target: RNH domain of HIV-1 reverse transcriptase (RT residues 427-560) with E438N and T477A (HIV-1)
Experiment: SEC-MALS

With “RNH domain of HIV-1 reverse transcriptase (RT residues 427-560) with E438N and T477A (domain or fragment)” as the substance, how does the stoichiometry N read?
The stoichiometry N was 2.
